Test results as given in US20220185898A1 (Alector, published 2022).
Where a chain is given by its changes, count along the chain named.

B1: S-81 (antibody, V domains shown)
VH: QLQLQESGPGLVKPSETLSLTCTVSGGSISSSSYYWGWIRQPPGKGLEWIGSIYYSGSTYYNPSLKSRVTISVDTSKNQFSLKLSSVTAADTAVYYCARERWDLGHGMDVWGQGTTVTVSS
VL: not shown
notes: IgG
B2: S-16 (antibody, V domains shown)
VH: QVQLVQSGAEVKKPGSSVKVSCKASGGTFSSYAISWVRQAPGQGLEWMGGIIPIFGTANYAQKFQGRVTITADESTSTAYMELSSLRSEDTAVYYCARSPYSGTRDFDLWGRGTLVTVSS
VL: DIQMTQSPSSVSASVGDRVTITCRASQGISSWLAWYQQKPGKAPKLLIYAASNLQSGVPSRFSGSGSGTDFTLTISSLQPEDFATYYCQQGNSYPITFGGGTKVEIK
notes: IgG
B3: S-55 (antibody, V domains shown)
VH: QVQLQESGPGLVKPSETLSLTCAVSGYSISSGYYWGWIRQPPGKGLEWIGSIYHSGSTYYNPSLKSRVTISVDTSKNQFSLKLSSVTAADTAVYYCARGRPELGWDKYFQHWGQGTLVTVSS
VL: DIQMTQSPSSVSASVGDRVTITCRASQGISRWLAWYQQKPGKAPKLLIYAASSLQSGVPSRFSGSGSGTDFTLTISSLQPEDFATYYCQQANALPTFGGGTKVEIK
notes: IgG
B4: S-26 (antibody, V domains shown)
VH: EVQLVESGGGLVKPGGSLRLSCAASGFTFSSYSMNWVRQAPGKGLEWVSSISSSSSYIYYADSVKGRFTISRDNAKNSLYLQMNSLRAEDTAVYYCARDRLGRGYKWNWFDPWGQGTLVTVSS
VL: DIQMTQSPSSVSASVGDRVTITCRASQGIDSWLAWYQQKPGKAPKLLIYAASSLQSGVPSRFSGSGSGTDFTLTISSLQPEDFATYYCQQGNSLPPITFGGGTKVEIK
notes: IgG
B5: S-84 (antibody, V domains shown)
VH: QLQLQESGPGLVKPSETLSLTCTVSGGSISSSSYYWGWIRQPPGKGLEWIGSISYSGSTYYNPSLKSRVTISVDTSKNQFSLKLSSVTAADTAVYYCARGGTTWLVADVWGQGTMVTVSS
VL: not shown
notes: IgG
B6: S-73 (antibody, V domains shown)
VH: QVQLQESGPGLVKPSQTLSLTCTVSGGSISSGTYYWSWIRQHPGKGLEWIGYIYYSGSTYYNPSLKSRVTISVDTSKNQFSLKLSSVTAADTAVYYCARGVGRYRVADYWGQGTLVTVSS
VL: EIVLTQSPATLSLSPGERATLSCRASQSVSSYLAWYQQKPGQAPRLLIYDASNRATGIPARFSGSGSGTDFTLTISSLEPEDFAVYYCQQASVYPPITFGGGTKVEIK
notes: IgG
B7: S-74 (antibody, V domains shown)
VH: B6 VH
VL: B6 VL with L4M, A51S, A91E, S92T, V93N, Y94M
notes: IgG
B8: S-12 (antibody, V domains shown)
VH: QVQLVQSGAEVKKPGASVKVSCKASGYTFTSYGISWVRQAPGQGLEWMGWISAYNGNTNYAQKLQGRVTMTTDTSTSTAYMELRSLRSDDTAVYYCARDLPKYKWGWFDPWGQGTLVTVSS
VL: not shown
notes: IgG
B9: S-78 (antibody, V domains shown)
VH: QLQLQESGPGLVKPSETLSLTCTVSGGSISSSDYYWGWIRQPPGKGLEWIGSIYYSGSTYYNPSLKSRVTISVDTSKNQFSLKLSSVTAADTAVYYCARSLAMSGAYFDLWGRGTLVTVSS
VL: not shown
notes: IgG
B10: S-10 (antibody, V domains shown)
VH: QVQLVQSGAEVKKPGASVKVSCKASGYTFTSYGISWVRQAPGQGLEWMGWISAYNGNTNYAQKLQGRVTMTTDTSTSTAYMELRSLRSDDTAVYYCARDPGGYGPTLYYYYGMDVWGQGTTVTVSS
VL: EIVMTQSPATLSVSPGERATLSCRASQSVSSNLAWYQQKPGQAPRLLIYGASTRATGIPARFSGSGSGTEFTLTISSLQSEDFAVYYCQQYADWPPITFGGGTKVEIK
notes: IgG
B11: S-61 (antibody, V domains shown)
VH: QVQLQESGPGLVKPSETLSLTCAVSGYSISSGYYWGWIRQPPGKGLEWIGSIYHSGSTYYNPSLKSRVTISVDTSKNQFSLKLSSVTAADTAVYYCARGSPRFYYGSGSYLDLFDIWGQGTMVTVSS
VL: EIVMTQSPATLSVSPGERATLSCRASQSVSSNLAWYQQKPGQAPRLLIYGASTRATGIPARFSGSGSGTEFTLTISSLQSEDFAVYYCQEYLNYPITFGGGTKVEIK
notes: IgG
B12: S-9 (antibody, V domains shown)
VH: B10 VH
VL: B11 VL with E90Q, L92N, N93I, I96L
notes: IgG
B13: S-69 (antibody, V domains shown)
VH: QVQLQESGPGLVKPSQTLSLTCTVSGGSISSGGYYWSWIRQHPGKGLEWIGYIYYSGSTYYNPSLKSRVTISVDTSKNQFSLKLSSVTAADTAVYYCARDRGGTHFGADHYYYGMDVWGQGTMVTVSS
VL: B11 VL with N32S, E90Q, Y91A, L92A, N93D, Y94W
notes: IgG
B14: S-58 (antibody, V domains shown)
VH: QVQLQESGPGLVKPSETLSLTCAVSGYSISSGYYWGWIRQPPGKGLEWIGSIYHSGNTYYNPSLKSRVTISVDTSKNQFSLKLSSVTAADTAVYYCARGPPELGKMYFQHWGQGTLVTVSS
VL: B11 VL with M4L, E90Q, Y91D, L92R, N93K, Y94G, I96L
notes: IgG
B15: S-4 (antibody, V domains shown)
VH: not shown
VL: B11 VL with E90Q, Y91F, L92R, N93V, Y94L, I96P
notes: IgG
B16: S-83 (antibody, V domains shown)
VH: QLQLQESGPGLVKPSETLSLTCTVSGGSISSSSYYWGWIRQPPGKGLEWIGSIYYSGSTYYNPSLKSRVTISVDTSKNQFSLKLSSVTAADTAVYYCARGSPTWLRDYYMDVWGKGTTVTVSS
VL: B11 VL with M4L, E90Q, L92N, N93A, Y94F, I96P
notes: IgG
B17: S-51 (antibody, V domains shown)
VH: QVQLVESGGGVVQPGRSLRLSCAASGFTFSSYGMHWVRQAPGKGLEWVAVISYDGSNKYYADSVKGRFTISRDNSKNTLYLQMNSLRAEDTAVYYCAKGLEYYDSSRLYYPYYYYMDVWGKGTTVTVSS
VL: EIVLTQSPATLSLSPGERATLSCRASQSVSSYLAWYQQKPGQAPRLLIYDASKRATGIPARFSGSGSGTDFTLTISSLEPEDFAVYYCQQRSNYPITFGGGTKVEIK
notes: IgG
B18: S-40 (antibody, V domains shown)
VH: not shown
VL: B17 VL with L4M, K53N, N93A, Y94L, I96F
notes: IgG
B19: S-64 (antibody, V domains shown)
VH: QVQLQESGPGLVKPSETLSLTCAVSGYSISSGYYWGWIRQPPGKGLEWIGSIYHSGSTYYNPSLKSRVTISVDTSKNQFSLKLSSVTAADTAVYYCARAEHRGPRYFDLWGRGTLVTVSS
VL: B2 VL with V11L, G28S, S30N, W32Y, A34N, N53S, G91L, N92D, Y94T
notes: IgG
B20: S-65 (antibody, V domains shown)
VH: B19 VH with A99E, E100G, H101Q, R102L, G103P, P104T, R105G, Y106T, L109Y, R112Q
VL: not shown
notes: IgG
B21: S-76 (antibody, V domains shown)
VH: QVQLQESGPGLVKPSQTLSLTCTVSGGSISSGGYYWSWIRQHPGKGLEWIGSIYYSGSTYYNPSLKSRVTISVDTSKNQFSLKLSSVTAADTAVYYCARGVGIQQQLVLGFDPWGQGTLVTVSS
VL: B2 VL with V11L, G28S, W32F, A34N, Y49S, N53S, G91S, N92Y, S93R, Y94E
notes: IgG
B22: S-6 (antibody, V domains shown)
VH: not shown
VL: B11 VL with E90Q, Y91V, L92A, I96R
notes: IgG; also called S-06

molecular target: T1, human Sortilin Fc fusion protein (human, UniProt Q99523 78-755); assay: ForteBio, avid;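 note: whole IgG captured on AHQ sensors, then contacted with Sortilin Fc fusion antigen at 100 nM, followed by an off-rate phase in buffer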
T1 construct: whole entry named; also called hSort-Fc
Description: (§1) The affinity for the Sortilin antibodies was determined by measuring their KD by ForteBio. […] Briefly, ForteBio affinity measurements were performed by loading IgGs on-line onto AHQ sensors. Sensors were equilibrated off-line in assay buffer for 30 min and then monitored on-line for 60 seconds for baseline establishment. For avid binding measurement, sensors with loaded IgGs were exposed to 100 nM antigen (human or mouse Sortilin Fc fusion) for 3, afterwards they were transferred to assay buffer for 3 min for off-rate measurement.
(§2) The binding affinity of each anti-Sortilin antibody was determined by measuring their KD by ForteBio or MSD-SET at room temperature. […] Briefly, ForteBio affinity measurements were performed by loading IgGs on-line onto AHQ sensors. Sensors were equilibrated off-line in assay buffer for 30 min and then monitored on-line for 60 seconds for baseline establishment. Sensors with loaded IgGs were exposed to 100 nM antigen for 5 minutes, then transferred to assay buffer for 5 min for off-rate measurement. Kinetics were analyzed using the 1:1 binding model.

Kd [nM] | Binder
2.2 | B1
3.8 | B2
2.28 | B3
2.88 | B4
4.4 | B5
3.33 | B6
3.05 | B7
9.35 | B8
3.51 | B9
11 | B10
4.26 | B11
6.98 | B12
4.29 | B13
2.59 | B14
4.5 | B15
1.79 | B16
4.12 | B17
2.43 | B18

molecular target: T2, mouse Sortilin Fc fusion protein (mouse; human, UniProt Q6PHU5 74-754); assay: ForteBio, avid;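 note: whole IgG captured on AHQ sensors, then contacted with Sortilin Fc fusion antigen at 100 nM, followed by an off-rate phase in buffer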
T2 construct: whole entry named; also called mSort-Fc
Description: as §1, §2

Kd [nM] | Binder
24.2 | B19
6.9 | B20
19 | B21
1.13 | B3
19.7 | B6
10.6 | B9
2.29 | B10
2.45 | B11
2.16 | B12
20.1 | B13
0.8 | B14
1.55 | B15
1.21 | B17

molecular target: T3, human Sortilin expressed on 293 / HEK293T cells (human, UniProt Q99523 78-830); assay: FACS, 293 cells;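 note: antibodies at 10 µg/ml bound to cells for 1 h on ice, detected with PE-labelled anti-human secondary antibody by flow cytometry, reported as mean fluorescence intensity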
T3 construct: full-length recombinant human Sortilin; also called hSort; SORT1
Description: (§3) Cells were harvested, plated at 10⁵/ml in a 96 well plate, washed, and incubated in 100 μl PBS containing 10 μg/ml Mab and 2% FBS for 1 hour in ice. Cells were then washed twice and incubated in 100 μl PBS+2% FBS containing 5 μg/ml PE-conjugated anti-human secondary antibody for 30 minutes in ice. Cells were washed twice in cold PBS and data was acquired on a BD FACS Canto. Data analysis and calculation of MFI values was performed with FlowJo (TreeStar) software version 10.0.7.

MFI | Binder
8940 | B1
7930 | B19
8070 | B20
6280 | B2
9680 | B21
9480 | B3
9020 | B4
9240 | B5
8070 | B6
9210 | B7
9760 | B8
7120 | B9
8660 | B10
11100 | B22
7480 | B11
10300 | B12
8580 | B13
7770 | B14
9120 | B15
9300 | B16
12200 | B17
7410 | B18

molecular target: T4, mouse Sortilin expressed on 293 / HEK293T cells (mouse, UniProt Q6PHU5 74-825); assay: FACS, 293 cells;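 note: antibodies at 10 µg/ml bound to cells for 1 h on ice, detected with PE-labelled anti-human secondary antibody by flow cytometry, reported as mean fluorescence intensity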
T4 construct: full-length recombinant mouse Sortilin; also called mSort; msSort
Description: as §3

MFI | Binder
16600 | B1
17900 | B20
4180 | B21
21400 | B3
20900 | B4
15400 | B5
7670 | B6
7300 | B7
18800 | B8
7930 | B9
19400 | B10
25600 | B22
21800 | B11
22200 | B12
1890 | B13
15100 | B14
15700 | B15
21900 | B17
2630 | B18
